Data published in article PMC11166264 (Cell reports, 2021).
Read-outs that look alike come from different tables or passages of the source. No end group written: not given here. *: point of attachment. Biotin = O=C1N[C@H]2[C@H](CS[C@H]2CCCCC(=O)*)N1

T1: HA-dmRanGAP (Drosophila melanogaster, UniProt Q9VIW3 1-596)
T1 sequence (looked up): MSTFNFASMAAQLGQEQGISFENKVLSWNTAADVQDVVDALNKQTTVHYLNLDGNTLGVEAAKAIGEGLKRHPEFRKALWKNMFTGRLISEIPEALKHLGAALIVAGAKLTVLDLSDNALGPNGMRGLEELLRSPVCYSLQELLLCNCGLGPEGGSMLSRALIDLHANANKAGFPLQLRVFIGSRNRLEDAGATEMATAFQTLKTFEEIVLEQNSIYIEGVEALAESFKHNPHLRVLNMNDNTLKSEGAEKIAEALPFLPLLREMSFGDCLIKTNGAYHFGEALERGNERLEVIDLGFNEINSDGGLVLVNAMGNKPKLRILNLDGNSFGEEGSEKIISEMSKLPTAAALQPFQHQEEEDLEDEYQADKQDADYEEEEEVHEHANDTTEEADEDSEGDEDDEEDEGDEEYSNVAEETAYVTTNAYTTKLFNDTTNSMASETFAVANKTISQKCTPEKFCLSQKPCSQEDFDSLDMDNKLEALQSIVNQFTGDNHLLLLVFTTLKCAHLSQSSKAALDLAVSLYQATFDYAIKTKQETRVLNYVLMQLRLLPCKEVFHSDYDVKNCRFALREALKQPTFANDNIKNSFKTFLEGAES


Columns and labels:
[1] = molecular target: T1, HA-dmRanGAP; assay: pull-down
[2] = molecular target: T1, HA-dmRanGAP; assay: pull-down; remark: listed apart in the source

binding result [1] | binding result [2] | Binder
binds |  | Biotin-VRPTTHEVIPPLPMTLPLLTLPQ [Biotinylated BP2 peptide (aa 2197-2219 of dmRanBP2)]
 | binds | dmRanBP2B-Frag (aa 2151-2250 of dmRanBP2B isoform) (domain or fragment, Drosophila melanogaster, UniProt A0A0B4K7J2 2151-2250, looked up) KPIEDSPVVGSVSQSTEANKPSQKNDGAAKSRGGESEVLDVGKTSSVRPTTHEVIPPLPMTLPLLTLPQPLAKPNDYQTPATILFKGSSLSRNNSSASEA
